# Results: the supplement of paper PMC10126150
# ± gives the standard deviation of the averaged measurements.
# System: ATP
# Experiment: switch fluorescence ratio, 500 uM ATP over buffer (Cy3 cluster intensity, sum of 5 cycles each) (fold (ratio)); higher = stronger signal-on switching upon ATP binding; sequences stand for … in TCGTCGGCAGCGTCAGATGTGTATAAGAGACAGTTTTTTTTTTTTTTTTTTTTTTTTT…TC
# Conditions: aptamer strand: ATP DNA aptamer (quencher-CACCTGGGGGAGTATTGCGGAGGAAGG + anchor), 100 nM annealed; ATP concentration: 500 uM
# Summary of the method: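 Cy3-labelled switching-strand clusters on a modified Illumina MiSeq flow-cell were annealed to 100 nM quencher-labelled ATP aptamer, imaged in selection buffer, then imaged after 15 min with 500 uM ATP at 22 °C. Five buffer/ATP cycles ran, with NaOH stripping and re-annealing between them. The fluorescence ratio is summed target-cycle over summed buffer-cycle Cy3 intensity per cluster, averaged per switch-domain sequence. Clusters outside 100-1000 RFU were excluded.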
# 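Further: ATP exposure 15 min at 22 °C before imaging.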
row,Sequence,switch fluorescence ratio
1,AAAGCTTATT,0.99822 ± 0.00097
2,TATGAGGGCT,1.04 ± 0.012
3,CGGTTTAGGA,0.988 ± 0.028
4,TTGATTGGCC,0.958 ± 0.018
5,TTGTGTTTAT,0.965 ± 0.015
6,ATCGGGACGG,0.9829 ± 0.0029
7,TTTAGTCATG,0.977 ± 0.035
8,GTTTTATTAT,1.017 ± 0.0017
9,GTGGTCCGCG,1.017 ± 0.0015
10,GACGTTATGT,1 ± 0.019
11,AAGTGATATA,1.01 ± 0.017
12,AATGATTGCG,1 ± 0.039
13,AGCAAAAAGG,0.997 ± 0.054
14,TTGGGTTTAT,0.999 ± 0.017
15,GGCATTGGAT,0.962 ± 0.034
16,GAGGGTATAG,1.02 ± 0.085
17,TGTTTTCGT,1.02 ± 0.011
18,AAGTTATGTA,1.01 ± 0.031
19,TTTTTGCGAA,1.033 ± 0.0011
20,CGGAATAGCT,1.22 ± 0.024
21,CTTCTTTGTG,0.996 ± 0.018
22,CATGTTTGCC,1.02 ± 0.015
23,CACAAAATAG,1.45 ± 0.49

row,Sequence,switch fluorescence ratio
1,AGGGTATTAG,0.995 ± 0.025
2,ATTTTAGGCC,1.1 ± 0.06
3,GGCTTATGGA,0.98 ± 0.038
4,TTGTTTGGCT,1.01 ± 0.015
5,TTTTTGATTT,1.01 ± 0.036
6,AGGCGGGCGG,0.959 ± 0.019
7,GTGGGAGCGG,1.02 ± 0.042
8,ATCTGGGGTG,1.02 ± 0.03
9,CCTGATCACC,1.063 ± 0.0098
10,TATTCTGGTT,1.02 ± 0.05
11,GTGGACCTGA,1.07 ± 0.02
12,TTTTTCAGTA,0.981 ± 0.016
13,AGGCTGCATG,1.01 ± 0.021
14,GGTCGGTAGA,0.998 ± 0.015
15,ATATATGGGA,0.973 ± 0.022
16,GGGATAGGTT,1.07 ± 0.12
17,GGGGGACTTG,0.997 ± 0.021
18,ATAGAATCAG,0.975 ± 0.038
19,CGCGGGGGGC,1.05 ± 0.084
20,TGCCTAAAGT,0.976 ± 0.016
21,GGTCATCTTG,0.975 ± 0.02
22,CAATGCAGCA,0.976 ± 0.021
23,GAATGGCTGC,1.04 ± 0.0048

row,Sequence,switch fluorescence ratio
1,AACTAGGATA,1.01 ± 0.02
2,CGGAGTTTTT,0.9971 ± 0.0058
3,GATGTCGAGA,1.019 ± 0.0051
4,TTTCGGGAGC,0.977 ± 0.049
5,TTTGCGTAAG,1.02 ± 0.033
6,TTGTTATGTT,0.971 ± 0.03
7,CGGGGAGCTG,1.02 ± 0.036
8,GTTATAGTTT,0.985 ± 0.014
9,GCTGTAAAAA,1.08 ± 0.063
10,CAGGCAGGTC,0.997 ± 0.024
11,AATCTATCCC,1.027 ± 0.0042
12,GCTTTTCAGC,1.01 ± 0.038
13,TTTGGGGCGA,1.02 ± 0.031
14,ATGAGAAGTT,1.01 ± 0.007
15,TGAAGTATAG,0.9901 ± 0.005
16,AAATTTATGT,0.972 ± 0.027
17,CAATTTGTGC,1.02 ± 0.1
18,ACTTGGACTG,1.03 ± 0.042
19,TACGAGCTGG,0.995 ± 0.01
20,TCAGGTATCG,1 ± 0.021
21,AGGTACAGGG,1.01 ± 0.041
22,AGAGAGATGG,0.977 ± 0.018
23,CGTATCGGGG,0.993 ± 0.054

row,Sequence,switch fluorescence ratio
1,TCGTCGGGGC,1.03 ± 0.029
2,TATAATTCTG,1.04 ± 0.029
3,TGGGAAGGAT,1.006 ± 0.0016
4,GCAGCAGGGT,1.101 ± 0.0034
5,TGAAATAAG,0.979 ± 0.026
6,GGGATTTTGT,0.983 ± 0.012
7,TACGCGGGGG,1.019 ± 0.0098
8,AAGCGAGCCG,1.02 ± 0.091
9,GTGGGAACCT,1.45 ± 0.29
10,TGTGGGTCGT,1.01 ± 0.026
11,ATTGGGAATA,0.986 ± 0.029
12,CTAGTAAGCG,0.998 ± 0.048
13,GGTTTGACGG,1.01 ± 0.053
14,CTTCATTACT,1.08 ± 0.017
15,GTGATTGATC,1.04 ± 0.023
16,ACGGGGTGTA,0.986 ± 0.041
17,AGGAGATGTA,1.029 ± 0.0061
18,GCTGTTTGCT,1.01 ± 0.034
19,ACGGTATCTT,1.13 ± 0.019
20,GCTGCAGGGC,1.37 ± 0.44
21,TGAGCGGAGG,1.01 ± 0.002
22,CCTTCTCGTC,1.34 ± 0.096
23,AAGAGAAGCC,1.02 ± 0.078

row,Sequence,switch fluorescence ratio
1,TTGGGTATGT,1.01 ± 0.038
2,GTTTAAGGCC,1.01 ± 0.043
3,AGGTTAGTAG,0.973 ± 0.0052
4,GACAGGGTTA,1.001 ± 0.0086
5,AGGAGCAAGG,1.26 ± 0.072
6,CTGCGACTTT,1.02 ± 0.035
7,GCTTGGGGGA,0.998 ± 0.041
8,ATTCTCATTG,0.982 ± 0.038
9,TACTGACTTG,0.989 ± 0.014
10,GCTTATAATG,0.997 ± 0.031
11,ATCAAGGATG,1.03 ± 0.038
12,ATGGGTGGCT,1.011 ± 0.007
13,TGAAGTTGTA,0.965 ± 0.035
14,TGCGTATATG,1.005 ± 0.0085
15,CGACTTTTGT,0.967 ± 0.013
16,GGGTTAATGC,1.03 ± 0.047
17,TAAATATTGT,1.01 ± 0.016
18,TTTTCAACTA,0.9949 ± 0.0024
19,TGCCCGTACG,1 ± 0.033
20,AGTCGGTGCA,0.9855 ± 0.0013
21,TCGTCGTAGG,1.01 ± 0.03
22,TATCTATGGG,0.983 ± 0.047
23,TCAGTGGATG,0.9794 ± 0.0032

row,Sequence,switch fluorescence ratio
1,TTTAATGCCG,0.954 ± 0.027
2,GCTGTAGCGC,1.06 ± 0.035
3,AGGGTGGGGT,0.977 ± 0.043
4,GTGTGAGTTA,0.992 ± 0.034
5,TTCGGGGTGG,0.9976 ± 0.0066
6,CTTTTTCTTT,1.01 ± 0.057
7,GTGGTGATAG,0.9652 ± 0.0041
8,TTTGGTTCTG,1.01 ± 0.012
9,ATTGCCCGTC,0.992 ± 0.038
10,TAAGGGCGCG,1.03 ± 0.035
11,AAAGCCGTAG,1.003 ± 0.0082
12,TCCCATAAGC,1.099 ± 0.0051
13,GTTGGTGGTG,0.9719 ± 0.0029
14,CGGGGTGAAT,1.022 ± 0.0052
15,TATTCGTGGG,0.956 ± 0.048
16,CTGCAGGGGG,1.05 ± 0.044
17,GAATAAGATC,1.02 ± 0.042
18,ACTTAGAATA,1.032 ± 0.0033
19,TGTATGGGAG,0.968 ± 0.02
20,TGGGGGGACA,0.985 ± 0.015
21,CGAGTCCAAG,1.01 ± 0.026
22,GTGTTCGAGT,0.986 ± 0.034
23,TAGGAGTGCT,0.9896 ± 0.0066

row,Sequence,switch fluorescence ratio
1,CGGCTGTGCT,1 ± 0.022
2,TGATTTTGGC,1.01 ± 0.017
3,GATTGGCTGT,0.966 ± 0.029
4,TAGACCAAAA,1.02 ± 0.017
5,TGGGACCCCC,1.34 ± 0.47
6,AACGGTATTC,1.07 ± 0.043
7,AAGGGACACA,1.05 ± 0.011
8,TTTTGTGGGT,0.986 ± 0.022
9,CATTCGCTTT,1.88 ± 0.036
10,CATGTCGGTT,0.991 ± 0.019
11,GCTTCGGAGG,1.015 ± 0.0024
12,TATGTTGGTG,0.987 ± 0.018
13,ACCGGGAGAT,0.994 ± 0.042
14,AATCGTCATC,0.991 ± 0.016
15,CGTAAAAAAT,0.986 ± 0.068
16,TGGATATGAT,0.998 ± 0.0028
17,GTGAGGATTT,0.986 ± 0.013
18,TTTTGTAGGG,0.969 ± 0.041
19,ATACAAGGGG,1.03 ± 0.033
